# B1: FLAG-tagged Stu1 (natural protein, S. cerevisiae, UniProt P38198 1-1513, looked up)
# chain: MSSFNNETNNNSNTNTHPDDSFPLYTVFKDESVPIEEKMALLTRFKGHVKKELVNESSIQAYFAALLFISGHYAYRSYPRLIFLSHSSLCYLIKRVAMQSPVQFNDTLVEQLLNHLIFELPNEKKFWLASIKAIEAIYLVNPSKIQAILANFLRRPSENQNGDYLNRIKSTLLTIDELIQINEKNNSNHLQLLRFFMLSFTNLLNNNLNEHANDDNNNVIIELIFDIMYKYLKMDDENSQDLIDGFINDLEVEKFKQKFISLAKSQDQHGSQEDKSTLFDEEYEFQLLLAEAKLPQLSNNLSSKDPAMKKNYESLNQLQQDLENLLAPFQSVKETEQNWKLRQSNIIELDNIISGNIPKDNPEEFVTVIKEVQLIELISRATSSLRTTLSLTALLFLKRLIHILNDQLPLSILDQIFVIFKNLLSSTKKISSQTAFHCLITLIIDINHFHNKLFQLSFLLINEKTVTPRFCSAILLRSFLIKFNDSNLSLNNSNTTSPTSKLENNIIYIEEWLKKGISDSQTTVREAMRLTFWYFYKCYPTNAKRLLSSSFSPQLKKATELAIPAHLNINYQVSRVSSTASASSATSRLYSHSSNNSSRKTSLLEQKRNYPSYAQPTQSSSTSLLNAPAVTAGGSVIASKLSNKLKTNLRSTSEYSSKENEKRARHHDSMNSVSNSNTKDNNNVTKRKVSAPPSSTAATKVSENYTNFDDFPSNQIDLTDELSNSYSNPLIKKYMDKNDVSMSSSPISLKGSNKLGEYETLYKKFNDASFPAQIKDALQYLQKELLLTSQQSSSAPKFEFPMIMKKLRQIMIKSPNDFKPFLSIEKFTNGVPLNYLIELYSINSFDYAEILKNRMNPEKPYELTNLIITIADLFNFLNANNCPNDFKLYYMKYKTTFFNYNFKLLLEIFRNLNIKHDNTLRSGTNDLMPKISMILFQIYGKEFDYTCYFNLIFEIYKFDNNRFNKLLADFDIVSTKMKICHELEKKDANFKVEDIISRESSVSFTPIDNKKSEGDEESDDAVDENDVKKCMEMTMINPFKNLETDKTLELKNNVGKRTSSTDSVVIHDDNDKDKKLSEMTKIVSVYQLDQPNPAKEEDDIDMENSQKSDLNLSEIFQNSGENTERKLKDDNEPTVKFSTDPPKIINEPEKLIGNGNENEKPDLETMSPIKINGDENMGQKQRITVKRERDVALTEQDINSKKMKLVNNKKSEKMHLLIMDNFPRDSLTVYEISHLLMVDSNGNTLMDFDVYFNHMSKAINRIKSGSFTMKHINYLIEPLITCFQNQKMTDWLTNENGFDELLDVAIMLLKSTDDTPSIPSKISSKSIILVHCLLVWKKFLNTLSENADDDGVSVRMCFEEVWEQILLMLNKFSDYGNEIYKLAQEFRDSLMLSHFFKKHSATRILSMLVTEIQPDTAGVKETFLIETLWKMLQSPTICQQFKKSNISEIIQTMSYFIMGTDNTSWNFTSAVVLARCLRVLQTTPDYTEQETERLFDCLPKNVFKMIMFIASNE
# Target: the molecule itself
# Test: SEC + other: sucrose gradient sedimentation
protein,measurement,value
B1,stoichiometry N,2
